Experimental data as given in paper PMC6804253, “Predicting and Experimentally Validating Hot-Spot Residues at Protein–Protein Interfaces” (ACS Chemical Biology, 2019).
Changes are numbered by the printed parent chain.

B1: 1A4Y EA287A (protein, UniProt P13489 2-461, looked up, variant E287A)
Ribonuclease inhibitor: SLDIQSLDIQCEELSDARWAELLPLLQQCQVVRLDDCGLTEARCKDISSALRVNPALAELNLRSNELGDVGVHCVLQGLQTPSCKIQKLSLQNCCLTGAGCGVLSSTLRTLPTLQELHLSDNLLGDAGLQLLCEGLLDPQCRLEKLQLEYCSLSAASCEPLASVLRAKPDFKELTVSNNDINEAGVRVLCQGLKDSPCQLEALKLESCGVTSDNCRDLCGIVASKASLRELALGSNKLGDVGMAELCPGLLHPSSRLRTLWIWECGITAKGCGDLCRVLRAKESLKALSLAGNELGDEGARLLCETLLEPGCQLESLWVKSCSFTAACCSHFSSVLAQNRFLLELQISNNRLEDAGVRELCQGLGQPGSVLRVLWLADCDVSDSSCSSLAATLLANHSLRELDLSNNCLGDAGILQLVESVRQPGCLLEQLVLYDIYWSEEMEDRLQALEKDKPSLRVIS
B2: 1A4Y KA320A (protein, UniProt P13489 2-461, looked up, variant K320A)
Ribonuclease inhibitor: B1 Ribonuclease inhibitor with A287E, K320A
B3: 1A4Y EA344A (protein, UniProt P13489 2-461, looked up, variant E344A)
Ribonuclease inhibitor: B1 Ribonuclease inhibitor with A287E, E344A
B4: 1A4Y EA401A (protein, UniProt P13489 2-461, looked up, variant E401A)
Ribonuclease inhibitor: B1 Ribonuclease inhibitor with A287E, E401A
B5: 1JRH YI49A (protein, UniProt P15260 18-245, looked up, variant Y49A)
extracellular domain: EMGTADLGPSSVPTPTNVTIESYNMNPIVYWEYQIMPQVPVFTVEVKNAGVKNSEWIDACINISHHYCNISDHVGDPSNSLWVRVKARVGQKESAYAKSEEFAVCRDGKIGPPKLDIRKEEKQIMIDIFHPSVFVNGDEQEVDYDPETTCYIRVYNVYVRMNGSEIQYKILTQKEDDCDEIQCQLAIPVSSLNSQYCVSAEGVLHVWGVTTEKSKEVCITIFNSSIKG
modifications: extracellular domain
B6: 1JRH WI82A (protein, UniProt P15260 18-245, looked up, variant W82A)
extracellular domain: B5 extracellular domain with A49Y, W82A
modifications: extracellular domain
B7: 1JRH VI51A (protein, UniProt P15260 18-245, looked up, variant V51A)
extracellular domain: B5 extracellular domain with A49Y, V51A
modifications: extracellular domain
B8: 1IAR IA11A (protein, UniProt P05112 25-153, looked up, variant I11A)
Interleukin-4: HKCDITLQEIAKTLNSLTEQKTLCTELTVTDIFAASKNTTEKETFCRAATVLRQFYSHHEKDTRCLGATAQQFHRHKQLIRFLKRLDRNLWGLAGLNSCPVKEANQSTLENFLERLKTIMREKYSKCSS
B9: 1IAR FA82A (protein, UniProt P05112 25-153, looked up, variant F82A)
Interleukin-4: B8 Interleukin-4 with A11I, F82A
B10: 1IAR WA91A (protein, UniProt P05112 25-153, looked up, variant W91A)
Interleukin-4: B8 Interleukin-4 with A11I, W91A
B11: 1EMV GA49A (protein, UniProt P13479 1-86, looked up, variant G49A)
Colicin-E9 immunity protein: MELKHSISDYTEAEFLQLVTTICNADTSSEEELVKLVTHFEEMTEHPSASDLIYYPKEGDDDSPSGIVNTVKQWRAANGKSGFKQG
B12: 1EMV PA56A (protein, UniProt P13479 1-86, looked up, variant P56A)
Colicin-E9 immunity protein: B11 Colicin-E9 immunity protein with A49G, P56A
B13: 1A4Y SA289A (protein, UniProt P13489 2-461, looked up, variant S289A)
Ribonuclease inhibitor: B1 Ribonuclease inhibitor with A287E, S289A
B14: 1JRH GI50A (protein, UniProt P15260 18-245, looked up, variant G50A)
extracellular domain: B5 extracellular domain with A49Y, G50A
modifications: extracellular domain
B15: 1DAN GT43A (protein, UniProt P13726 33-251, looked up, variant G43A)
extracellular domain: SGTTNTVAAYNLTWKSTNFKTILEWEPKPVNQVYTVQISTKSADWKSKCFYTTDTECDLTDEIVKDVKQTYLARVFSYPAGNVESTGSAGEPLYENSPEFTPYLETNLGQPTIQSFEQVGTKVNVTVEDERTLVRRNNTFLSLRDVFGKDLIYTLYYWKSSSSGKKTAKTNTNEFLIDVDKGENYCFSVQAVIPSRTVNRKSTDSPVECMGQEKGEFRE
modifications: extracellular domain
B16: 1AHW NC199A (protein, UniProt P13726 33-251, looked up, variant N199A)
extracellular domain: B15 extracellular domain with A43G, N199A
modifications: extracellular domain
B17: 1DAN TT17A (protein, UniProt P13726 33-251, looked up, variant T17A)
extracellular domain: B15 extracellular domain with T17A, A43G
modifications: extracellular domain
B18: 1AHW TC167A (protein, UniProt P13726 33-251, looked up, variant T167A)
extracellular domain: B15 extracellular domain with A43G, T167A
modifications: extracellular domain
B19: 1DAN ST16A (protein, UniProt P13726 33-251, looked up, variant S16A)
extracellular domain: B15 extracellular domain with S16A, A43G
modifications: extracellular domain
B20: 1DAN PU92A (protein, UniProt P13726 33-251, looked up, variant P92A)
extracellular domain: B15 extracellular domain with A43G, P92A
modifications: extracellular domain
B21: 1AHW TC197A (protein, UniProt P13726 33-295, looked up, variant T197A)
Tissue factor: SGTTNTVAAYNLTWKSTNFKTILEWEPKPVNQVYTVQISTKSGDWKSKCFYTTDTECDLTDEIVKDVKQTYLARVFSYPAGNVESTGSAGEPLYENSPEFTPYLETNLGQPTIQSFEQVGTKVNVTVEDERTLVRRNNTFLSLRDVFGKDLIYTLYYWKSSSSGKKTAKTNTNEFLIDVDKGENYCFSVQAVIPSRAVNRKSTDSPVECMGQEKGEFREIFYIIGAVVFVVIILVIILAISLHKCRKAGVGQSWKENSPLNVS

Test system: PPIs of the SKEMPI data set (by PDBID)
Assay: SKEMPI experimental ΔΔG, single mutations to alanine
Assay type: binding
Settings: class by ΔΔG threshold 4.184 kJ/mol; ref SKEMPI

Molecule | sk_class (class of the SKEMPI experimental ΔΔG) | sk_class (class of SKEMPI experimental ΔΔG)
B1 | Neutral (neutral (little effect) 4.184 kJ/mol < ΔΔG > −4.184 kJ/mol) | –
B2 | Neutral (neutral (little effect) 4.184 kJ/mol < ΔΔG > −4.184 kJ/mol) | –
B3 | Neutral (neutral (little effect) 4.184 kJ/mol < ΔΔG > −4.184 kJ/mol) | –
B4 | Neutral (neutral (little effect) 4.184 kJ/mol < ΔΔG > −4.184 kJ/mol) | –
B5 | – | Positive (positive (a hot residue) ΔΔG ≥ 4.184 kJ/mol)
B6 | – | Positive (positive (a hot residue) ΔΔG ≥ 4.184 kJ/mol)
B7 | – | Positive (positive (a hot residue) ΔΔG ≥ 4.184 kJ/mol)
B8 | – | Neutral (neutral (little effect) 4.184 kJ/mol < ΔΔG > −4.184 kJ/mol)
B9 | – | Neutral (neutral (little effect) 4.184 kJ/mol < ΔΔG > −4.184 kJ/mol)
B10 | – | Neutral (neutral (little effect) 4.184 kJ/mol < ΔΔG > −4.184 kJ/mol)

Same assay, conditions: class of the SKEMPI experimental ΔΔG

Molecule | sk_class
B11 | Positive (positive (a hot residue) ΔΔG ≥ 4.184 kJ/mol)
B12 | Positive (positive (a hot residue) ΔΔG ≥ 4.184 kJ/mol)
B13 | Neutral (neutral (little effect) 4.184 kJ/mol < ΔΔG > −4.184 kJ/mol)
B14 | Positive (positive (a hot residue) ΔΔG ≥ 4.184 kJ/mol)
B15 | Neutral (neutral (little effect) 4.184 kJ/mol < ΔΔG > −4.184 kJ/mol)
B16 | Positive (positive (a hot residue) ΔΔG ≥ 4.184 kJ/mol)
B17 | Neutral (neutral (little effect) 4.184 kJ/mol < ΔΔG > −4.184 kJ/mol)
B18 | Neutral (neutral (little effect) 4.184 kJ/mol < ΔΔG > −4.184 kJ/mol)
B19 | Neutral (neutral (little effect) 4.184 kJ/mol < ΔΔG > −4.184 kJ/mol)
B20 | Neutral (neutral (little effect) 4.184 kJ/mol < ΔΔG > −4.184 kJ/mol)
B21 | Positive (positive (a hot residue) ΔΔG ≥ 4.184 kJ/mol)

Test system: PPIs of the SKEMPI data set (by PDBID)
Assay: not given
Settings: single mutation to alanine; PPI given by PDBID; sheet sortedByGroup, r_group DERKH; ref SKEMPI; cited from earlier work

Molecule | sk_ddG_kJ (SKEMPI experimental ΔΔG, mutation to alanine)
B1 | 0.38 kJ
B2 | -1.30 kJ
B3 | 0.67 kJ
B4 | 3.60 kJ

Same assay, conditions: single mutation to alanine; PPI given by PDBID; sheet sortedByGroup, r_group FAMILYVW; ref SKEMPI; cited from earlier work

Molecule | sk_ddG_kJ (SKEMPI experimental ΔΔG)
B5 | 15.31 kJ
B6 | 18.12 kJ
B7 | 6.19 kJ
B8 | 0.29 kJ
B9 | -0.38 kJ
B10 | 3.05 kJ

Same assay, conditions: single mutation to alanine; complex given by PDBID, mutation by mut_pdb; ref SKEMPI; cited from earlier work

Molecule | sk_ddG_kJ (SKEMPI experimental ΔΔG)
B11 | 6.23 kJ
B12 | 5.19 kJ
B13 | 0.13 kJ
B14 | 18.33 kJ
B15 | 0.29 kJ
B20 | -0.79 kJ

Same assay, conditions: single mutation to alanine; complex given by PDBID; residue group SQNT; ref SKEMPI; cited from earlier work

Molecule | sk_ddG_kJ (SKEMPI experimental ΔΔG)
B16 | 4.52 kJ
B17 | 0.50 kJ
B18 | -0.29 kJ
B19 | -0.54 kJ
B21 | 5.65 kJ
